According to PMC8012654:

Biological target: recombinant GST-αII spectrin peptide, codons 891-1231 (repeats 9 and 10), R1098Q (mouse) (UniProt P16546)
Experiment: SPR; BIAcore T200, CM5 chip; GST-spectrin peptides captured by their GST tag on amine-coupled goat anti-GST antibody to 1,000 RU; CaM 20 nM to 500 nM flowed in HBS running buffer with 2 mM CaCl2; 25 °C, 20 µl/min; global fit, 1:1 Langmuir model with mass transport step; KD = kd/ka

Substance: purified bovine brain calmodulin (CaM) (from UniProt P62157 1-149) (natural protein)
- reduction in affinity for CaM relative to the WT peptide: 19%
